# Assay results: the DeepSol protein solubility set
# Assay: soluble on expression in E. coli; label from the status in PepcDB or PDB records
row,Sequence,soluble on expression in E. coli
1,MKEKIPFYNEKEFNEMMKKTKKGTFSGWYIINPENNSVEFSGSFNRQFKLNKPIIPVNTEYVTRKEFNEYKDSNDQRLIKIETTLTAQGEQINKLTQTVEKQGEQIRELQVEQKAQGEQIKAQGETLKLILQTLQKMSDRLDKIDPPK,soluble
2,MAPVKLYMVEVIDKKEIAANERRSRENDVTGPEITHYYQVTFRLTTDDRKDLVLNIDKSSYQNIEPEMKGRLFMQGSRFVQFETDVPIDEQKLEHHHHHH,soluble
3,MLSRVRIGWLLLEDFFRMNEFEELLNSVSEVSTGDVVTAEVISVDNDQANVVIEGTGIEGVLTRRELTNDRDANVADLVKDGETLEVLVLRQVVGKDTDTVTYLVSKKRLEARKAWDKLVGREEEVVTVKGTRAVKGGLSVEFEGLRGFIPASMIDTRFVRNTEQFVGQEFDAKIKEVDPAENRFILSRREVVEAEAIEARKEVFSKLEVGSVVTGKVARLTSFGAFIDLGGVDGLVHVTELSHERNVSPKSVVSVGDEIEVKVLAIDEEAGRVSLSLKATTPGPWDGVEQKLAAGDVIEGKVKRLTDFGGFVEVLPGIDGLVHISQISHKRVENPKDVLSVGQDVTVKVLEVNADAERVSLSIKALEERPANAEGENNEKRQSRPRRPKRQEKRDYELPETQSGFSMADLFGDIEL,not soluble
4,MQALKTKSNIGEMFNIQEKENGEIAISGRELHQALEVSTRYDKWFERMTEYGFENGIDFISQVEKVHGQKRARTYEQVNHILTLDTAKEIAMIQRSEPGKRARQYFIQVEKAWNSPEMIMQRALKIANNTINQLETKIERDKPKIVFADAVATTKTSILVGELAKIIKQNGINIGQRRLFEWLRQNGFLIKRKGVDYNMPTQYSMERELFEIKETSITHSDGHTSISKTPKVTGKGQQYFVNKFLGEKQTS,not soluble
5,MEKDIKRQIQILEIITSEEKWFTTIEISKILRCCNKTIMKDISFIKDFLPEDWHIKIKKGKGVRIYLPYNKHRNEITFLLFRESLTFRILQHLFERETKTIATLAERLYIQVPSILPALKRVENYLKKFGLKLRKKPLRLEGDEVRIMIMYLDLYLKSYNDTEWPFEKLKKEVIFQYLGTLEESLGISLHVVSKRHLSFFIAILLKRKQQGYKVQLNRKFLYFNTETPDYVKIGRIFEKLEREFGVSLTVQDKILLTISIKSSKYVYKDINKEKEESVQYFKEGNLSIYELVKDFINSLEEKLKVDLISDEEFIFALVDYFKRTIYHLQYLCMFERPQKQTIQYMQTEHSETFSAVKEVYTEFVKKNEIADYVSVEEIAKVTMYIEASRLRYTSNYKKVLLVTGESESWAEYLAATLAKRFGDKIQISTVFFAKKSDHDVNADFIISTIPLDLGSTPIICINSIPTERDYTNIQYYLDLQDG,not soluble
6,MKRDGHTHTEFCPHGTHDDVEEMILKAIELDFDEYSIVEHAPLSSEFMKNTAGNQEAVTTASMSMSDLPYYFKKMNQMKKKYASDLLIHIGFEVDYLIGYEDFTRDFLNEYGPQTDDGVLSLHFLEGQGGFRSIDFTAEDYNEGIVQFYGGFEQAQLVYLAGVKQSIEADLGAFKPRRIGHISLCQKFQQFFGADGRDFTAEVIAEFEAILALVKKRGYELDFNTAGLFKPLCKETYPPKEIVTLARALEIPFVYGSDSHGVADIGRGYNTYCQK,not soluble
7,MGSDKIHHHHHHAQTGASDGSRFGHGEDSIRCLKNISIYTEYVKTNNFKDAYTPWMSVFTEAPKAQVSTYTNGAKILRALIAGEKDAAKQKQYFNELMKVHDQRIQYLDDLNKLVKRDATKGSIIGMKAHDYFTMGGQDMNEAYNMFKEAIELEKENSDYFVLQEFMDAAARKMKSDEAYKEQFIQDYLFASGVADGALKAATKENDKKLLKVAKDNIDAFFINSGVATCDNLQAIYAPKVEQNKTNLDYLKQVISVMQMLNCTEQEAYFAASEAAHAIEPTAETAVGCGYMYYKKGDMDKCIDYFDQAINLEQDPLKKADYAYKTAAILFSKKQLSKAKQYALKSISLDGNNGKPYILIANMYASSPNWSDEAALNKCTYFAVIDKLQKAKSVDPSVAEEANKLIGTYAAHTPKDADLFFLSLKKGDSVTIGGWIGETTTIR,not soluble
8,MSLNEMEKRPEDTRVVVGMSGGVDSSVAALLLKEQGYDVIGIFMKNWDDTDENGFCTATEDYEDVIRVCNQIGIPYYAVNFEKQYYEKVFQYFLDEYKAGRTPNPDVLCNKEIKFKAFLEHALSLGADYLATGHYARVDRSGGKVRMLRGIDENKDQTYFLNQLTEDTLSKVMFPIGELQKSRVREIAKEAELATATKKDSTGICFIGERNFKTFLSQYLPAQPGDMMTMDGEVKGRHDGLMYYTIGQRHGLGIGGSGEPWFAVGKDLEKNILYVDQGFHNPLLYSDKITATNISWVRSDIMKGEEISCTAKFRYRQEDHKVTVRMTGEGEAEVIFDEQVRAVTPGQAVVFYDGEECLGGGTIDDVYKDGTKLWYVEGHHHHHH,soluble
9,MGSDKIHHHHHHMTVAKGSIHGIIGENGAGKSTLMSILYGFYQADSGEIKIGGQSTVIKDSQAAISSGIGMVHQHFMLVENFTVLENVMLGAEGGALLAKGTAAARASLKQLETDYGLDVDPDAVVEELPVGRQQRVEILKALYRGADILILDEPTGVLTPAEADHLFKILRVLRDQGKTVILITHKLREIMAITDTVSVMRRGEIVATRKTVETSVEELAELMVGRRVLLRVDKQPAQPRDVLLSVRNLTVKDSRGVIMVDDVSFDVREGEIVGIAGVAGNGQSELLEAITGIRKPMSGEILIAGKLVTGYDPARLRDLGLAHIPEDRHHMGLVLPFEESQNAILGYHRDERYGKGMFLDPKAIRAAAEVEIAKYDIRPPNPRLKTANFSGGNQQKIVVAREIERDPNVLIIGQPTRGVDIGAIEFIHRRIVETRDKGKALLLVSVELDEIRSLSDRILVMFAGKVVGEKTADADEQTLGLMMAGIAA,not soluble
10,MSLNSNTEKRIALISVHGDPAIEIGKEEAGGQNVYVREVGKALAQLGWQVDMFSRKVSPEQELIVHHSPLCRTIRLTAGPEEFVPRDNGFKYLPEFVQQLLRFQKENNVNYPLVHTNYWLSSWVGMQLKAIQGSKQVHTYHSLGAVKYKSIDTIPLVATKRLSVEKQVLETAERIVATSPQEQQHMRSLVSTKGYIDIVPCGTDIHRFGSIARQAARAELGIDQEAKVVLYVGRFDQRKGIETLVRAMNESQLRDTNKLKLIIGGGSTPGNSDGRERDRIEAIVQELGMTEMTSFPGRLSQDVLPAYYAAADVCVVPSHYEPFGLVAIEAMASGTPVVASDVGGLQFTVVSEKTGLLVPPKDIAAFNIAIDRILMNPQWRDELGLAARKHVTHKFGWEGVASQLDGIYTQLLTQQVKEPALVTKEGHHHHHH,soluble
11,MYFIAGMFDGKEKVNREQPPMPTTDGVEYPRAASWAAGNCANVLNDDKGKQLFRVFLFQSLAEENLAFLEAMEKLKKMKISDEKVAYAKEILETYQGSINLSSSSMKSLRNAVASETLDMEEFAPAIKEVRRLLENDQFPRFRRSELYLEYLEELLPRSYAEKWAQSFEGLLGNHVGRHHFRIFLRSIHAEENLRFWEAVVEFRSSRHKANAMNNLGKVILSTYLAEGTTNEVFLPFGVRQVIERRIQDNQIDITLFDEAIKHVEQVLRNDPYVRFLQSSQYIDLLSKLK,not soluble
12,MQRIETRKVKVGSVYVGGDSRVTVQSMTNTDTRDSKKTIEQIKKLEIAGCDIVRCAVPDFDAASSLSEITKNVKLPVVADIHFDYRLALEAIKNGVSALRINPGNIGSKERVELVAKSAKEKNIPIRIGVNSGSLEKDILNKYKRVCSEALVESALNHVKILEDVNFNDIVISIKSSNVQMMIDSYRLISKEVNYPLHLGVTEAGTIWRGTIKSSIGIGTLLSEGIGDTIRVSLTGDPVEEVKVGREILKTFGYLKSGVEFISCPTCGRTSIDLIKIANEVEKRLEKTNKSIKVAVMGCVVNGPGEAREADIGIAGGKGEGLIFKKGEIIKKVKEENLVDELMREIDNMLEHHHHHH,not soluble
13,MSLRVKYFGTDGIRGIFGETLTDELAFKVGKALGEIVGEGKVIVGKDTRVSGDSLEAAISAGLTSMGVDVLLCGILPTPAVALLTRITRSFGVVISASHNPPEYNGIKVLKGGYKIPDEMEAEIEKRLENGSFLTRSVVGRTKSFREGRDMYIGAVLEMFRDLDLTGEMVSLDLANGATTTTAREVFEFLGAKVEVFNDSQDGLLINQGCGATHPRFLAEEMKNGKVGFTFDGDGDRVIAVDEERNVVNGDRIIGILAVGLKEEGRLNSDTVVGTVMTNGGLEDFLKEKGIRLLRTKVGDKYVLEKMLESGANLGGERSGHIIILDRSTTGDGLITALELMRVLKRSGRKLSDFAKEIPDYPQITKNVRRTERMSLENENLRKIVEESTSRGYRVVIRPSGTEPVIRITVEGKDREEIEKIVEEISRVLESEGHHHHHH,soluble
14,TVSRENRAEDSRVAAKGVAFGGGETVRIAAEPSVWSNADAVFLDPFFTSANLYDTLSADEGRGRCRRLAEQAASAHGAGKPVLVRVRNVRHVEAALNAGADILYLGGGLMSDLAVLNEAGSLNIPLVLCKDKHHSAEDWLNAAEYVVSRGNRHLILGESGVLGHTKGHPYRLDVESIVKVRQISHLPVIANITGLWSRDMPQEILYGLAKAAGACGIV,not soluble
15,MGSDKIHHHHHHMDNKFKNIPKRHLPQKLPFDYTSIYTDPQIIKLTTRANIAIGTYEGFLESIINPMLLISPLLSQEAVLSSKLEGTHATLKDLLNYEAGNKVDIERDELHEIINYRKALFYALENISTINNIDSKGLPLSNRIIKEMHKILLDNVRGSSKNPGNFKRSQNYIGSVSSISYTPVPAEKTPEYMSNLEQYIHYDDLDLLVQSAIIHAQFEMIHPFEDGNGRIGRLLIPLFLYYQELLSYPTFYMSSYFERDRSLYISHLSNISKDNNWKDWFEYYLEGVILSAEESTKKAQDILSLYNIMKEQVIPKLNSVSGIQLLDFIFSAPIFKAEQVSEHLKISKRTTYTLLNKLIDEGYLSTDNAQRNRTYYCPQLLSIVQ,not soluble
16,MRLCGLLIFLSYIVYVDNAVTANFISDPRSMFPKMVRTKNAFHFLQYFMGTFRRMFRNKTEMIEHFNYYDDQVKGTDCHIQEELDFARFKSYFDRYTRTHYNPEIRIIFAIMTKDSSHMTVEFHVTSQSWFGFEDHFHMIIRAVNDENVGWGVRYLSMAFNC,not soluble
17,MAEKAENLPSSSAEASEEPSPQTGPNVNQKPSILVLGMAGSGKTTFVQRLTAFLHARKTPPYVINLDPAVSKVPYPVNVDIRDTVKYKEVMKEFGMGPNGAIMTCLNLMCTRFDKVIELINKRSSDFSVCLLDTPGQIEAFTWSASGSIITDSLASSHPTVVMYIVDSARATNPTTFMSNMLYACSILYRTKLPFIVVFNKADIVKPTFALKWMQDFERFDEALEDARSSYMNDLSRSLSLVLDEFYCGLKTVCVSSATGEGFEDVMTAIDESVEAYKKEYVPMYEKVLAEKKLLDEEERKKRDEETLKGKAVHDLNKVANPDEFLESELNSKIDRIHLGGVDEENEEDAELERS,not soluble
18,MGSDKIHHHHHHMRTYRLVIACPDRVGIVAKVSNFLALYNGWINEASHHSDEQSGWFFMRHEIRAESLPFGIEAFREAFAPIAEEFSMTWRITDSAQKKRVVLMASRESHCLADLLHRWHTDELDCEIPCVISNHNDLRSMVEWHGIPFFHVPVDPKDKAPAFAEVSRLVQEHAADVVVLARYMQILPPQLCRDYAEKVINIHHSFLPSFVGAKPYHQAALRGVKLIGATCHYVTEELDAGPIIEQDVVRVSHADSIEDMVRFGRDVEKMVLARGLRYHLEDRVLVHGNKTVVFD,not soluble
19,MTEQLFDSLAKQNGFRVLSGGKYGGNNGFDHVWQAADGSVVLIVESKQIRNGTVQLNPNGAGGYTQMSREWIKQVVKSLPDGSPAKAVVLKANQNGKLKTAIAGVDRQTGKAVILSVKVPSKTNIRR,not soluble
